Experimental data taken from patent publication EP4799607A2.

Biological target: human VEGF165 (human) (UniProt P15692)
Experiment: population PK model estimate, Michaelis-Menten binding of free aflibercept to VEGF in plasma (in vivo, model-derived)

Chain of UniProt P15692 (P15692 other isoform, or with tags, fused parts or gaps limits assumed): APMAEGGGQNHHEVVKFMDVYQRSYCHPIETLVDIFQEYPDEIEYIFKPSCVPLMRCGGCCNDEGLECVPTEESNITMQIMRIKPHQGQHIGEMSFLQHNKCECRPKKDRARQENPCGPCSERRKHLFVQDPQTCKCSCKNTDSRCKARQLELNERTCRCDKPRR
Chain of aflibercept (chain): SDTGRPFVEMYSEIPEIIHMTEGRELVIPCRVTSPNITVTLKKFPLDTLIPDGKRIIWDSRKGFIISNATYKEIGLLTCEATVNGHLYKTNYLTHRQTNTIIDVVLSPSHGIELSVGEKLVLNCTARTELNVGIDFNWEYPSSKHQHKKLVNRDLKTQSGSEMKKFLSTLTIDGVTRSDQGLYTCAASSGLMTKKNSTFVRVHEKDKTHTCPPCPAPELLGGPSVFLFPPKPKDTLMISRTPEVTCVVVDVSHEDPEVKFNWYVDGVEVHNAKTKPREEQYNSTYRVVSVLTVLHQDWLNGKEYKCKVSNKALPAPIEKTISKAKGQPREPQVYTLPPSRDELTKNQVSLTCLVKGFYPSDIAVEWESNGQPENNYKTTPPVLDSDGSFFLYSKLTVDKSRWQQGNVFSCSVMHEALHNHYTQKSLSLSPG

With aflibercept (Fc fusion) the KM (concentration of free aflibercept at half of maximum binding capacity with VEGF) was 0.411 mg/L and the VMK24 (maximum binding rate of free aflibercept to VEGF) was 0.167 mg/day/L.
